Measurements as given in publication PMC3002392.

Target: Na+,K+-ATPase α-subunit (endogenous, MDCK cells) (dog (endogenous in MDCK)) (UniProt P50997)
Assay: co-IP

For “AS160 (endogenous, MDCK cells) (natural protein)”, which fold increase of co-precipitated AS160 with 40 uM Compound C against vehicle is on record?
The fold increase of co-precipitated AS160 with 40 uM Compound C against vehicle was 7 fold.
